From patent publication US20190352387A1 (Chugai, published 2019)
Blank lines part the entries; values can stand above or below the binder they belong to.

Assays:
[1] = target: T1, Recombinant cynomolgus monkey sclerostin (cynomolgus monkey, UniProt Q9BG78 24-213 (Chlorocebus aethiops entry)); assay: cell-based or functional assay
T1 chain: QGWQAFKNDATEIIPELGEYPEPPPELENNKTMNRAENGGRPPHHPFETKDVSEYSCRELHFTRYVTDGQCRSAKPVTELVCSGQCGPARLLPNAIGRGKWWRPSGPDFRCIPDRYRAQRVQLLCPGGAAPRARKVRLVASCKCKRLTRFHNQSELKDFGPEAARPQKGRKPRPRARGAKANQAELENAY

[2] = target: T2, Recombinant human sclerostin (human, UniProt Q9BQB4 24-213); assay: SPR; captured antibody (SG1/SK1 constant regions), recombinant human SOST as analyte; response normalised by the capture level of the antibody [panel A-A-B]
T2 construct: Whole entry as named; Secreted recombinant protein purified from FreeStyle293-F conditioned medium; also called human-SOST; Human SOST
T2 sequence: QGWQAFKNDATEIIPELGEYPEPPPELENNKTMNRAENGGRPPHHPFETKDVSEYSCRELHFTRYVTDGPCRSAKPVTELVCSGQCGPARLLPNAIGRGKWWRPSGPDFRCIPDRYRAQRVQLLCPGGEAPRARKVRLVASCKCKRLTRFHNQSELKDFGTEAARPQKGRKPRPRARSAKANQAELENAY

[3] = target: T2, Recombinant human sclerostin; assay: SPR (Biacore), dissociation at pH 5.8 of complex formed at pH 7.4
Experimental: (§1) The affinity of anti-sclerostin variants binding to human, cynomolgus monkey (cyno), rat, or mouse sclerostin at pH 7.4 and pH 5.8 were determined at 37 degrees C. using Biacore T200 instrument (GE Healthcare). Anti-human Fc (GE Healthcare) was immobilized onto all flow cells of a CM4 sensor chip using amine coupling kit (GE Healthcare). All antibodies and analytes were prepared in ACES pH7.4 or pH 5.8 buffer containing 20 mM ACES, 150 mM NaCl, 1.2 mM CaCl₂, 0.05% Tween 20, 0.005% NaN₃. Each antibody was captured onto the sensor surface by anti-human Fc. […] Sensor surface was regenerated each cycle with 3M MgCl₂.
(§2) The pH dependent interaction assessment was determined by a modified Biacore assay. Briefly, an additional dissociation phase at pH5.8 was integrated into the Biacore assay immediately after dissociation phase at pH7.4. This is to assess the pH-dependent dissociation between antibody and antigen from the complexes formed at pH7.4. The dissociation rate at pH5.8 buffer was determined by processing and fitting data using Scrubber 2.0 (BioLogic Software) curve fitting software.

[4] = target: T3, Recombinant rat sclerostin (rat, UniProt Q99P67 29-213); assay: SPR (Biacore T200), 37 C, dissociation at pH 5.8 of complex formed at pH 7.4
T3 construct: Whole entry as named; also called rat-SOST
T3 sequence: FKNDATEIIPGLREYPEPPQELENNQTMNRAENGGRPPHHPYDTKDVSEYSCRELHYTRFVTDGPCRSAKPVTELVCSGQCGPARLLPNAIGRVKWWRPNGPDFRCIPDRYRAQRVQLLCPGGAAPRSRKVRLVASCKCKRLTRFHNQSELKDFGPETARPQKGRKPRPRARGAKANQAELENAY
Experimental: as §1, §2

[5] = target: T4, Recombinant mouse sclerostin (mouse, UniProt Q99P68 24-211); assay: as above
T4 construct: Whole entry as named; also called mouse-SOST
T4 sequence: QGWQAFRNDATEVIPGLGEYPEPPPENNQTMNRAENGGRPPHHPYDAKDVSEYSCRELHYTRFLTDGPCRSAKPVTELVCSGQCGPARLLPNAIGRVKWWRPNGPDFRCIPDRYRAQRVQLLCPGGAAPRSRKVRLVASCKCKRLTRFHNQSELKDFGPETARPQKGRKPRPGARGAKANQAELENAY
Experimental: as §1, §2

[6] = target: T2, Recombinant human sclerostin; assay: cell-based or functional assay
[7] = target: T2, Recombinant human sclerostin; assay: SPR (Biacore T200), 37 C, dissociation at pH 5.8 of complex formed at pH 7.4
Experimental: as §1, §2

[8] = target: T1, Recombinant cynomolgus monkey sclerostin; assay: as above
Experimental: as §1, §2

[9] = target: T4, Recombinant mouse sclerostin; assay: cell-based or functional assay
[10] = target: T4, Recombinant mouse sclerostin; assay: cell-based or functional assay; remark: listed apart in the source

B1: mabA-hG2 (antibody, human IgG2, kappa, V domains shown)
VH: EVQLVQSGAEVKKPGASVKVSCKASGYTFTDYNMHWVRQAPGQGLEWMGEINPNSGGAGYNQKFKGRVTMTTDTSTSTAYMELRSLRSDDTAVYYCARLGYDDIYDDWYFDVWGQGTTVTVSS
VL: DIQMTQSPSSLSASVGDRVTITCRASQDISNYLNWYQQKPGKAPKLLIYYTSRLLSGVPSRFSGSGSGTDFTLTISSLQPEDFATYYCQQGDTLPYTFGGGTKVEIKR
IC50 (read off the curve); Wnt1-induced TCF/LEF luciferase reporter in HEK293T cells, % Inhibition of monkey SOST [1]: ~4 µg/mL

B3: mabB heavy chain combined with light chain variant A-A-B (antibody, human IgG1, kappa, V domains shown)
VH: QVQLVQSGAEVKKPGASVKVSCKVSGFPIKDTFQHWVRQAPGKGLEWMGWSDPEIGDTEYASKFQGRVTMTEDTSTDTAYMELSSLRSEDTAVYYCATGDTTYKFDFWGQGTTVTVSS
VL: DIQMTQSPSSLSASVGDRVTITCRASQDISNYLNWYQQKPGKAPKLLIYYTSRLLSGVPSRFSGSGSGTDFTLTISSLQPEDFATYYCQQYSDYPWTFGGGTKVEIKR
notes: also called A-A-B with the mabB heavy chain
binding result [2]: binds

B4: amH848/bsH638/abL152 (bispecific antibody)
heavy 1: not shown
heavy 2: not shown
VL: DIQMTQSPSSLSASVGDRVTITCRASEGIHDALAWYQQKPGKAPKLLIYWASTLESGVPSRFSGSGSGTDFTLTISSLQPEDFATYYCQQGDTLPYTFGGGTKVEIK
notes: Biparatopic, common light chain
koff [3]: 0.1 s⁻¹

B6: amH852/bsH638/abL152 (bispecific antibody)
heavy 1: not shown
heavy 2: not shown
VL: DIQMTQSPSSLSASVGDRVTITCRASEGIHDALAWYQQKPGKAPKLLIYWASTLESGVPSRFSGSGSGTDFTLTISSLQPEDFATYYCQQGDTLPYTFGGGTKVEIK
notes: as for B4
IC50 (read off the curve); Wnt1-induced TCF/LEF luciferase reporter in HEK293T cells, % Inhibition of human SOST [6]: ~10 µg/mL | koff [3]: 0.028 s⁻¹

B7: amH852/bsH656/abL152 (bispecific antibody)
heavy 1: not shown
heavy 2: not shown
VL: DIQMTQSPSSLSASVGDRVTITCRASEGIHDALAWYQQKPGKAPKLLIYWASTLESGVPSRFSGSGSGTDFTLTISSLQPEDFATYYCQQGDTLPYTFGGGTKVEIK
IC50 (read off the curve); Wnt1-induced TCF/LEF luciferase reporter in HEK293T cells, % Inhibition of human SOST [6]: ~10 µg/mL

B8: mabA_NpH1 (antibody, V domains shown)
VH: EVQLVQSGAEVKKPGASVKVSCKASGYTFTDYNMHWVRQAPGQGLEWMGEINPNSGGAGYNQKFKGRVTMTTDTSTSTAYMELRSLRSDDTAVYYCARLGYDDIYDDWYFHVWGQGTTVTVSS
VL: DIQMTQSPSSLSASVGDRVTITCRASQDISNYLNWYQQKPGKAPKLLIYHTSRLLSGVPSRFSGSGSGTDFTLTISSLQPEDFATYYCQQGDTLPYTFGGGTKVEIK
koff [7]: 0.00214 s⁻¹ | koff [8]: 0.00182 s⁻¹ | koff [4]: 0.000805 s⁻¹ | koff [5]: 0.00191 s⁻¹

B9: mabB//mabA_pH1-BS01 (bispecific antibody, human IgG1, kappa)
heavy 1: QVQLVQSGAEVKKPGASVKVSCKVSGFPIKHHFQHWVRQAPGKGLEWMGWSDPEIGDTEYASKFQGRVTMTEDTSTDTAYMELSSLRSEDTAVYYCATGDTTYKFDFWGQGTTVTVSSASTKGPSVFPLAPSSRSTSESTAALGCLVKDYFPEPVTVSWNSGALTSGVHTFPAVLQSSGLYSLSSVVTVPSSSLGTKTYTCNVDHKPSNTKVDKRVEPKSCDKTHTCPPCPAPELLGGPSVFLFPPKPKDTLMISRTPEVTCVVVDVSQEDPEVQFNWYVDGVEVHNAKTKPREEQFNSTYRVVSVLTVLHQDWLNGKEYKCKVSNKGLPSSIEKTISKAKGQPREPQVYTLPPSREEMTKNQVSLTCLVKGFYPSDIAVEWESNGQPENNYKTTPPYLDSDGSFFLYSKLTVDKSRWQQGNVFSCSVMHEALHNHYTQESLSLSP
light 1: DIQMTQSPSSLSASVGDRVTITCKASQDVHTAVAWYQQKPGKAPKLLIYWASTRWTGVPSRFSGSGSGTDFTLTISSLQPEDFATYYCQQYSDYHWTFGGGTKVEIKRTVAAPSVFIFPPSDEQLKSGTASVVCLLNNFYPREAKVQWKVDNALQSGNSQESVTEQDSKDSTYSLSSTLTLSKADYEKHKVYACEVTHQGLSSPVTKSFNRGEC
heavy 2: EVQLVQSGAEVKKPGASVKVSCKASGYTFTDYNMHWVRQAPGQGLEWMGEINPHSGHAGYNQKFKGRVTMTTDTSTSTAYMELRSLRSDDTAVYYCARLHYDDIHDDWYFDVWGQGTTVTVSSASTKGPSVFPLAPSSRSTSESTAALGCLVKDYFPEPVTVSWNSGALTSGVHTFPAVLQSSGLYSLSSVVTVPSSSLGTKTYTCNVDHKPSNTKVDKRVEPKSCDKTHTCPPCPAPELLGGPSVFLFPPKPKDTLMISRTPEVTCVVVDVSQEDPEVQFNWYVDGVEVHNAKTKPREEQFNSTYRVVSVLTVLHQDWLNGKEYKCKVSNKGLPSSIEKTISKAKGQPREPQVYTLPPSRKEMTKNQVSLTCLVKGFYPSDIAVEWESNGQPENNYKTTPPYLDSDGSFFLYSKLTVDKSRWQQGNVFSCSVMHEALHNHYTQKSLSLSP
light 2: not shown
MFI of pHrodo-Red-labelled mouse sclerostin taken up into MDCK cells expressing human Fc gamma receptor IIB and human FcRn (flow cytometry) [9]: 2430 MFI | IC50 (read off the curve); Wnt1-induced TCF/LEF luciferase reporter in HEK293T cells, % Inhibition of mouse SOST [10]: ~8 µg/mL

Further lines, results first:

binding result [2]: no binding
B2: mabA heavy chain combined with light chain variant A-A-B (antibody, human IgG1, kappa, V domains shown)
VH: EVQLVQSGAEVKKPGASVKVSCKASGYTFTDYNMHWVRQAPGQGLEWMGEINPNSGGAGYNQKFKGRVTMTTDTSTSTAYMELRSLRSDDTAVYYCARLGYDDIYDDWYFDVWGQGTTVTVSS
VL: DIQMTQSPSSLSASVGDRVTITCRASQDISNYLNWYQQKPGKAPKLLIYYTSRLLSGVPSRFSGSGSGTDFTLTISSLQPEDFATYYCQQYSDYPWTFGGGTKVEIKR
notes: also called A-A-B with the mabA heavy chain

koff [4]: 0.00486 s⁻¹ | koff [5]: 0.00805 s⁻¹
B5: mabA_pH2 (antibody, V domains shown)
VH: EVQLVQSGAEVKKPGASVKVSCKASGYTFTDYNMHWVRQAPGQGLEWMGEINPNSGHAGYNQKFKGRVTMTTDTSTSTAYMELRSLRSDDTAVYYCARLHYDHIYDDWYFDVWGQGTTVTVSS
VL: DIQMTQSPSSLSASVGDRVTITCRASHDISNYLNWYQQKPGKAPKLLIYYTSRLLSGVPSRFSGSGSGTDFTLTISSLQPEDFATYYCQQGDTLPYTFGGGTKVEIK

MFI of pHrodo-Red-labelled mouse sclerostin taken up into MDCK cells expressing human Fc gamma receptor IIB and human FcRn (flow cytometry) [9]: 1960 MFI | IC50 (read off the curve); Wnt1-induced TCF/LEF luciferase reporter in HEK293T cells, % Inhibition of mouse SOST [10]: ~9 µg/mL
B10: mabB//mabA_pH2-BS01 (bispecific antibody, human IgG1, kappa)
heavy 1: QVQLVQSGAEVKKPGASVKVSCKVSGFPIKHHFQHWVRQAPGKGLEWMGWSDPEIGDTEYASKFQGRVTMTEDTSTDTAYMELSSLRSEDTAVYYCATGHTTYKFDFWGQGTTVTVSSASTKGPSVFPLAPSSRSTSESTAALGCLVKDYFPEPVTVSWNSGALTSGVHTFPAVLQSSGLYSLSSVVTVPSSSLGTKTYTCNVDHKPSNTKVDKRVEPKSCDKTHTCPPCPAPELLGGPSVFLFPPKPKDTLMISRTPEVTCVVVDVSQEDPEVQFNWYVDGVEVHNAKTKPREEQFNSTYRVVSVLTVLHQDWLNGKEYKCKVSNKGLPSSIEKTISKAKGQPREPQVYTLPPSREEMTKNQVSLTCLVKGFYPSDIAVEWESNGQPENNYKTTPPYLDSDGSFFLYSKLTVDKSRWQQGNVFSCSVMHEALHNHYTQESLSLSP
light 1: DIQMTQSPSSLSASVGDRVTITCKASQDVHTAVAWYQQKPGKAPKLLIYWASTRWTGVPSRFSGSGSGTDFTLTISSLQPEDFATYYCQQYSDYHWTFGGGTKVEIKRTVAAPSVFIFPPSDEQLKSGTASVVCLLNNFYPREAKVQWKVDNALQSGNSQESVTEQDSKDSTYSLSSTLTLSKADYEKHKVYACEVTHQGLSSPVTKSFNRGEC
heavy 2: EVQLVQSGAEVKKPGASVKVSCKASGYTFTDYNMHWVRQAPGQGLEWMGEINPHSGHAGYNQKFKGRVTMTTDTSTSTAYMELRSLRSDDTAVYYCARLHYDDIHDDWYFDVWGQGTTVTVSSASTKGPSVFPLAPSSRSTSESTAALGCLVKDYFPEPVTVSWNSGALTSGVHTFPAVLQSSGLYSLSSVVTVPSSSLGTKTYTCNVDHKPSNTKVDKRVEPKSCDKTHTCPPCPAPELLGGPSVFLFPPKPKDTLMISRTPEVTCVVVDVSQEDPEVQFNWYVDGVEVHNAKTKPREEQFNSTYRVVSVLTVLHQDWLNGKEYKCKVSNKGLPSSIEKTISKAKGQPREPQVYTLPPSRKEMTKNQVSLTCLVKGFYPSDIAVEWESNGQPENNYKTTPPYLDSDGSFFLYSKLTVDKSRWQQGNVFSCSVMHEALHNHYTQKSLSLSP
light 2: not shown
